Measurements published in patent US7608412.

Target: GST-aPKCt
Experiment: co-immunoprecipitation from HEK cells transfected with HA-GSK3β, GST-aPKCt and myc-p62; anti-HA IP, anti-GST blot, densitometry; with against without p62

Chain of Hemagglutinin (HA)-tagged GSK3β (enzyme) (P49841 whole entry): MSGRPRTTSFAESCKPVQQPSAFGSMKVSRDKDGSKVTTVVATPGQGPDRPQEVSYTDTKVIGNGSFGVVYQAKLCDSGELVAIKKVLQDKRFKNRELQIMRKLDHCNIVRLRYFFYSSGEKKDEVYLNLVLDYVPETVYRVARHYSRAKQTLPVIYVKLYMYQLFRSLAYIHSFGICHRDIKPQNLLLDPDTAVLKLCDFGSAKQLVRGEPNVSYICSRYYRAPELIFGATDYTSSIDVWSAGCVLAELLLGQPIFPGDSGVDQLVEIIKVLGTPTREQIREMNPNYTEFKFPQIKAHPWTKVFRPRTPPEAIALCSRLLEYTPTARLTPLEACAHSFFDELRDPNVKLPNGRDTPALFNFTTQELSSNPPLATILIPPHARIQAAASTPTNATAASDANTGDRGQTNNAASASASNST

For “Hemagglutinin (HA)-tagged GSK3β (enzyme)”, the fold enhancement of the interaction in the presence of p62 was 2 fold.
